One protein from publication doi:10.1101/2023.03.27.534461 (bioRxiv, 2023) can be followed below.

This data set deals with the molecule itself. Description: cryo-EM structure; 100 nM unmodified nucleosome with 10 μM Bre1-Bre1-Rad6 fusion protein, 20 mM HEPES pH 7.5, 50 mM NaCl, 1 mM DTT, room temperature 30 min; cross-linked with glutaraldehyde, then Superdex 200; three states resolved.

B1: Bre1 591–700 (domain or fragment, yeast, UniProt Q07457 591-700, looked up)
chain: KLNDTEIELKHFKQKASHLESKCEKLHDTLFRGNNKNKGSSDEALVEELANFRTLVYCSLCSKNWKNMAIKTCGHVFCENCCKERLAARMRKCPTCNKAFSSNDLLTVHL
notes: Bre1, yeast E3 ubiquitin ligase, residues 591-700: coiled coil that mediates dimerization and RING domain; In the structure the two copies of Bre1(591-700) stood on one chain of the fusion m1, joined by a (GGS)4 linker; written here as a molecule of its own for the pairs Bre1 with H2A and Bre1 with Bre1; also called Bre1-A; Bre1-B; source: E. coli BL21(DE3)Rosetta2, purified, as part of the …
B1: the binding result is “binds”.
